Experimental data from patent US20160075790A1 (Bristol-Myers Squibb, published 2016).
Residue numbers refer to the chain shown, from its start. “And” between values parts separate entries of the source, which are not always exact repeats. Identical values can stand only once.

B1: BMS2h-572-12 (other)
VH: EVQLLESGGGLVQPGGSLRLSCAASGFTFNWQLMGWARQAPGKGLEWVSGIEGPGDVTYYADSVKGRFTISRDNSKNTLYLQMNSLRAEDTAVYYCAKVGKESNSDYRGQGTLVTVSS
B2: BMS2h-572-22 (other)
VH: B1 VH with L5F, L11S, A37V
B3: BMS2h-702 (other)
VH: EVQLLESGGGLVQPGGSLRLSCAASGFTFAEYEMMWARQAPGKGLEWVSRIAGNGSRTYYADSVKGRFTISRDNSKNTLYLQMNSLRAEDTAVYYCAIMLSHFDYWGQGTLVTVSS
B4: BMS2h-703 (other)
VH: EVQLLESGGGLVQPGGSLRLSCAASGFTFYNYDMSWVRQAPGKGLEWVSGIDSMGLVTYYADSVKGRFTISRDNSKNTLYLQMNSLRAEDTAVYYCAKGSNASDWVVFDYWGQGTLVTVSS
B5: BMS2h-706 (other)
VH: EVQLLESGGGLVQPGGSLRLSCAASGFTFGSYKMLWVRQAPGKGLEWVSSITNSGTETYYADSVKGRFTISRDNSKNTLYLQMNSLRAEDTAVYYCAKSMYPDLEIVHFDYWGQGTLVTVSS
B6: BMS2h-707 (other)
VH: EVQLLESGGGLVQPGGSLRLSCAASGFTFETYRMSWVRQAPGKGLEWVSAIDQEGSATYYADSVKGRFTISRDNSKNTLYLQMNSLRAEDTAVYYCAKNSGTRPGLRFDYWGQGTLVTVSS
B7: BMS2h-710 (other)
VH: EVQLLESGGGLVQPGGSLRLSCAASGFTFNTYSMSWVRQAPGKGLEWVSWIDADGWVTYYADSVKGRFTISRDNSKNTLYLQMNSLRAEDTAVYYCAQTGHTFDYWGQGTLVTVSS
B8: BMS2h-712 (other)
VH: EVQLLESGGGLVQPGGSLRLSCAASGFTFPEYEMKWVRQAPGKGLEWVSTITPSGGHTYYADSVKGRFTISRDNSKNTLYLQMNSLRAEDAAVYYCAIPLSSFDYWGRGTLVTVSS
B9: BMS2h-717 (other)
VH: EVQLLESGGGLVQPGGSLRLSCAASGFTFSSYEMAWVRQAPGKGLEWVSRIEPDGSNTYYADSVKGRFTISRDNSKNTLYLQMNSLRAEDTAVYYCAKGPDNFTMFDYWGQGTLVTVSS
B10: BMS2h-719 (other)
VH: EVQLLESGGGLVQPGGSLRLSCAASGFTFKRYEMTWVRQAPGKGLEWVSSISSDGSFTYYADSVKGRFTISRDNSKNTLYLQMNSLRAEDTAVYYCAEPFTEFDYWGQGTLVTVSS
B11: BMS2h-719-203 (other)
VH: B10 VH with K30N, R31S, T35M, Q108H
B12: BMS2h-719-213 (other)
VH: B10 VH with T35M, E98D, F103M, Q108H
B13: BMS2h-719-214 (other)
VH: B10 VH with T35M, E98D, Q108H
B14: BMS2h-719-215 (other)
VH: B10 VH with T35M, F103L, Q108H
B15: BMS2h-719-218 (other)
VH: B10 VH with T35M, D62E, Q108H
B16: BMS2h-722 (other)
VH: EVQLLESGGGLVQPGGSLRLSCAASGFTFTKYPMAWVRQAPGKGLEWVSGIDANGNRTYYADSVKGRFTISRDNSKNTLYLQMNSLRAEDTAVYYCAEGTWRRHFAIFDYWGQGTLVTVSS
B17: BMS2h-723 (other)
VH: EVQLLESGGGLVQPGGSLRLSCAASGFTFDLYDMMWVRQAPGKGLEWVSSISDLGTLTYYADSVKGRFTISRDNSKNTLYLQMNSLRAEDTAVYYCAKNGFRVTSNDRRFDYWGQGTLVTVSS
B18: BMS2h-725 (other)
VH: EVQLLESGGGLVQPGGSLRLSCAASGFTFSAYTMGWVRQAPGKGLEWVSLIGDRGSWTYYADSVKGRFTISRDNSKNTLYLQMNSLRAEDTAVYYCAEPSDPTKFDYWGQGTLVTVSS
B19: BMS2h-725-2 (other)
VH: B18 VH with D106V, L113P
B20: BMS2h-725-9 (other)
VH: B18 VH with K43M
B21: BMS2h-725-19 (other)
VH: B18 VH with E98D, D106V
B22: BMS2h-726 (other)
VH: EVQLLESGGGLVQPGGSLRLSCAASGFTFDNYKMYWVRQAPGKGLEWVSSISEIGNLTYYADSVKGRFTISRDNSKNTLYLQMNSLRAEDTAVYYCAIALTRFDYWGQGTLVTVSS
B23: BMS2h-730 (other)
VL: DIQMTQSPSSLSASVGDRVTITCRASQDIKDWLHWYQQKPGKAPKLLIYFASGLQSGVPSRFSGSGSGTDFTLTISSLQPEDSATYYCQQHYSTPYTSGQGTKVEIKR
B24: BMS2h-731 (other)
VL: DIQMTQSPPSLSASVGDRVTITCRASQLISSHLDWYQQKPGKAPKLLVYDASELQSGVPSRFSGSGSGTDFTLTISSLQPEDFATYYCQQHRSLPFTFGQGTKVEIKR
B25: BMS2h-744 (other)
VH: EVQLLESGGGLVQPGGSLRLSCAASGFTFKEHDMFWVRQAPGKGLEWVSGIGAEGVWTYYADSVKGRFTISRDNSKNTLYLQMNSLRAEDTAVYYCAEPTMSNGSQSRFDYWGQGTLVTVSS
B26: BMS2h-745 (other)
VH: EVQLLESGGGLVQPGGSLRLSCAASGFTFDNTEMAWVRQAPGKGLEWVSGIIEDGNRTYYADSVKGRFTISRDNSKNTLYLQMNSLRAEDTAVYYCAKIRNLHWDVGRQFDYWGQGTLVTVSS
B27: BMS2h-745-1 (other)
VH: B26 VH with I52T
B28: BMS2h-745-2 (other)
VH: B26 VH with I52S, T91S, D111V
B29: BMS2h-745-9 (other)
VH: B26 VH with L11S, I52T, D111V
B30: BMS2h-745-13 (other)
VH: B26 VH with V37I
B31: BMS2h-745-14 (other)
VH: B26 VH with V37I, I52T
B32: BMS2h-746 (other)
VH: B26 VH with D30G, N31S, T32A, A35G, I52S, E53R, D54P, N56Q, R57V
B33: BMS2h-747 (other)
VH: EVQLLESGGGLVQPGGSLRLSCAASGFTFDDGTMGWARQAPGKGLEWVSLILPSGSRTYYADSVKGRFTISRDNSKNTLYLQMNSLRAEDTAVYYCAKHSLTNRPFDYWGQGTLVTVSS
B34: BMS2h-752 (other)
VH: EVQLLESGGGLVQPGGSLRLSCAASGFTFSDYAMAWVRQAPGKGLEWVSRIGVEGGDTYYADSVKGRFTISRDNSKNTLYLQMNSLRAEDTAVYYCAKLLRLYRLGFDYWGQGTLVTVSS
B35: BMS2h-754 (other)
VH: EVQLLESGGGLVQPGGSLRLSCAASGFTFSRYDMVWVRQAPGKGLEWVSRINSMGLATYYADSVKGRFTISRDNSKNTLYLQMNSLRAEDTAVYYCAKDYSVAPHGYPLGFDYWGQGTLVTVSS
B36: BMS2h-757 (other)
VH: EVQLLESGGGLVQPGGSLRLSCAASGFTFKEYNMAWVRQAPGKGLEWVSSINFAGRTTYYADSVKGRFTISRDNSKNTLYLQMNSLRAEDTAVYYCAKLSLPLDIFSFDYWGQGTLVTVSS
B37: BMS2h-758 (other)
VH: EVQLLESGGGLVQPGGSLRLSCAASGFTFGDYGMNWVRQAPGKGLEWVSHISSNGRFTYYADSVKGRFTISRDNSKNTLYLQMNSLRAEDTAVYYCAETSGYFDYWGQGTLVTVSS
B38: BMS2h-758-1 (other)
VH: B37 VH with T78M, Q82R, F103Y, D104E
B39: BMS2h-758-2 (other)
VH: B37 VH with D104E
B40: BMS2h-758-3 (other)
VH: B37 VH with G101S, D104E

molecular target: T1, human isoleucine zipper-CD40L (IZ-hCD40L) (human, UniProt P29965 113-261); assay: cell-based or functional assay
T1 sequence: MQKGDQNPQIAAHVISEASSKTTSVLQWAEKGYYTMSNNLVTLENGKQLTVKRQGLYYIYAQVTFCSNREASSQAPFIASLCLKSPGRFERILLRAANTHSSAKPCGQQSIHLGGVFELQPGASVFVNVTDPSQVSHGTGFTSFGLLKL

Binder	hIZCD40L-driven Human B Cell Proliferation EC50
B1	0.079 µM and 0.076 µM
B2	0.357 µM and 0.305 µM
B3	> 7 µM
B4	> 7 µM
B5	> 7 µM
B6	> 7 µM
B7	> 7 µM
B8	> 7 µM
B9	> 7 µM
B10	0.6 µM
B11	0.081 µM and 0.096 µM
B12	0.062 µM and 0.098 µM
B13	0.066 µM and 0.089 µM
B14	0.092 µM and 0.091 µM
B15	0.057 µM and 0.06 µM
B16	> 7 µM
B17	> 7 µM
B18	6.4 µM
B19	> 7 µM
B20	> 7 µM

Binder	hIZCD40L-driven Human B Cell Proliferation EC50
B21	> 7 µM
B22	> 7 µM
B23	> 7 µM
B24	5.8 µM
B25	> 7 µM
B26	6.4 µM and 3.5 µM and > 7 µM
B27	> 7 µM
B28	> 7 µM
B29	> 7 µM
B30	> 7 µM
B31	> 7 µM
B32	> 7 µM
B33	> 7 µM
B34	> 7 µM
B35	6.6 µM
B36	6.4 µM
B37	5.9 µM
B38	> 7 µM
B39	> 7 µM
B40	> 7 µM
